Data: the supplement of paper PMC10567573

B1: LOXL2 (parent)
chain: YVEVKEGKTWKQICDKHWTAKNSR
B2: COX4I1 (parent)
chain: FDKEWVAKQTKRMLDMKVNPIQGL

Variants of: B1
Assay: protein stability index of a GFP-peptide fusion (GPS, HEK-293T) (PSI 1-6); higher = more stable
Settings: c terminus: a fixed tail appended
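Further: lentivirally expressed fusions sorted by FACS into six bins by GFP to DsRed ratio, PSI derived from sequencing read proportions per bin multiplied by bin number.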

Protein stability index, by site and new letter:
I13: V 2.44 | R 2.59
G7: H 1.62 | L 1.95
E6: S 1.99
R24: H 3.07
K21: S 1.99
Q12: E 1.58 | P 2.31 | N 2.61
T19: Y 2.29 | E 2.15
T9: W 3.01
V2: N 3.69 | S 2.86 | D 3.58 | C 2.09
N22: Q 1.82
E3: S 3.96 | R 1.88 | C 1.44 | G 3.63 | K 2.68
S23: T 2.33 | V 2.15
K8: F 2.42
V4: I 2.55 | A 2.73
H17: A 3 | G 3.27
A20: Q 2.54
K16: N 1.93 | P 1.95 | M 2.3
K11: D 1.18
C14: S 1.75 | F 2.07 | Q 1.74

Variants of: B2
Assay: as above
Settings: c terminus: a fixed tail appended

Protein stability index, by site and new letter:
A7: D 2.32 | K 2.29 | R 2.45 | H 1.74 | L 1.56 | W 1.77 | P 2.05 | Q 1.84 | S 1.11 | Y 1.71 | M 1.81 | V 1.18 | C 1.27 | E 1.77 | F 1.56 | G 2.28 | N 1.65 | T 1.76 | I 1.68
K8: T 1.48 | G 1.87 | A 1.06 | H 1.77 | N 1.38 | L 2.31 | Q 1.18 | V 1.84 | F 1.99 | S 1.75 | P 2.33 | E 2.35 | W 3.04 | M 1.88 | R 2.42 | C 2.68 | Y 2.59 | D 2.29
L14: C 1.38 | T 1.79 | G 1.72 | S 1.54 | E 1.43 | A 2.35 | I 2.1 | F 2.88 | N 1.56 | H 1.65 | M 1.47 | P 1.65 | Y 2.42 | R 1.82 | Q 1.23 | D 2.06 | K 2.12 | V 1.41
K17: C 2.08 | A 1.96
T10: L 1.24 | P 2 | I 2.82 | F 1.82 | C 1.7 | W 1.82 | N 1.73 | D 1.82 | H 1.69 | A 1.41 | K 1.78 | M 1.91 | V 1.49 | S 1.08 | G 2.67 | Y 1.6 | R 2.35 | Q 1.84 | E 2.21
D2: M 1.93 | W 1.52 | C 4.02 | P 2.51 | A 2.65 | N 2.57 | T 1.35 | Y 1.76 | L 1.09 | I 2.45 | G 1.55 | R 1.27 | K 1.62 | V 1.26 | E 1.89
K11: E 1.86 | N 1.54 | I 1.8 | W 1.52 | Y 3.38 | F 1.97 | S 2.28 | P 2.32 | L 1.61 | D 1.54 | A 1.84 | H 1.7 | R 1.92 | C 2.77 | Q 1.79 | M 1.9 | V 2.58 | G 1.62 | T 1.92
E4: P 1.66 | R 1.84 | M 1.26 | K 1.82 | C 1.62 | S 1.43 | Y 1.89 | Q 1.53 | I 1.47 | F 1.63 | G 1.43 | D 1.9 | L 1.88 | T 2.34 | A 2.41 | V 2.42 | N 1.69 | H 2.35 | W 1.66
R12: Y 1.56 | V 2.27 | D 1.88 | F 2.17 | H 1.97 | G 1.35 | S 3.04 | T 1.54 | M 1.6 | C 1.43 | A 1.88 | E 2.59 | N 1.36 | K 1.81 | Q 2.84 | L 3.17 | W 1.65 | I 1.96
K3: H 1.52 | V 1.68 | D 2.57 | W 1.29 | L 2.06 | F 1.87 | A 2.17 | C 2.12 | M 1.64 | Q 2.85 | R 1.66 | T 2.1 | S 2.19 | N 2.06 | E 2.83 | G 1.91 | P 1.75 | Y 2.13
Q9: H 1.77 | S 2.46 | V 1.46 | C 3.23 | P 2 | D 2.2 | L 2.08 | F 1.54 | G 2.65 | T 2.87 | R 1.87 | K 2.62 | N 1.42 | E 2.26 | Y 2.14 | I 1.6 | A 3.55 | W 1.8 | M 2.54
M16: P 2.19 | S 1.88 | Y 1.75 | D 1.97 | F 1.62 | K 1.5 | L 2 | I 2.1 | R 1.72 | A 1.48 | G 2.13 | W 2.02 | C 1.65 | H 1.42 | T 1.79 | Q 2.4 | E 1.52 | N 1.67 | V 1.71
W5: K 3.54 | E 3.6 | I 3.44 | V 4.17 | M 3.52 | S 3.61 | P 3.63 | C 3.78 | G 3.92 | Y 3.22 | A 3.96 | D 4.22 | H 2.84 | N 3.86 | F 2.8 | R 3.98 | L 3 | T 2.87 | Q 3.85
F1: W 2.17 | L 3.57 | Y 1.71 | A 3.42 | H 3.13 | G 2.92 | Q 3.31 | N 3.79 | P 3.44 | C 2.62 | I 3.11 | M 3.23 | V 2.77 | D 4.38 | R 2.42 | K 3.57 | S 3.34 | T 3.71 | E 3.19
V6: W 2.67 | I 1.35 | N 1.79 | Y 1.6 | P 1.86 | Q 2.83 | T 1.93 | A 3.39 | H 2.06 | G 2.31 | L 2.37 | R 2.1 | C 1.53 | K 2.28 | M 1.93 | S 1.96 | D 2.78 | F 1.55 | E 3.33
M13: F 2.12 | R 1.64 | P 2.35 | T 1.82 | N 2.23 | S 2.4 | A 1.13 | D 1.59 | C 2.17 | I 2.34 | H 1.43 | E 2.06 | G 1.64 | Y 1.63 | K 1.88 | L 2.36 | W 1.56 | Q 2.99
D15: P 1.84 | V 1.33 | L 1.64 | M 3.02 | W 2.07 | I 1.76 | H 1.88 | Y 2.36 | T 1.84 | C 1.66 | A 1.62 | E 1.68 | S 1.58 | N 1.58 | G 1.75 | Q 1.6 | K 1.89 | F 1.84
